Reference: US20260116963A1 (GENERATE BIOMEDICINES, published 2026)
Numbering of substitutions follows the chain as printed. Values belong to the binder of their own block, whether it stands above or below them.

Assays:
human IL-13 [1] = molecular target: T1, human IL-13 (human, UniProt P35225 25-146, limits assumed); experiment: KinExA, 25 C
T1 construct: The KinExA antigen was detected with an anti-HIS IgG, so it probably carried a HIS tag; also called Interleukin-13; hIL-13

human IL-13 [2] = molecular target: T1, human IL-13; experiment: SPR (Biacore 8K+), antibody captured, human IL-13 as analyte, 37 C; less than 5% decay in 5,400 s, KD estimated
human IL-13 [3] = molecular target: T1, human IL-13; experiment: SPR (Biacore 8K+), antibody captured on anti-human Fc CM4 chip, human IL-13 0.6-10 nM as analyte, 37 C, 1:1 fit
mouse IL-13 = molecular target: T2, mouse IL-13 (mouse, UniProt P20109 19-131, limits assumed); experiment: SPR (Biacore 8K+), antibody captured on anti-human IgG Fc chip, IL-13 as analyte, 25 C
T2 construct: also called recombinant mouse IL-13
T2 sequence (looked up): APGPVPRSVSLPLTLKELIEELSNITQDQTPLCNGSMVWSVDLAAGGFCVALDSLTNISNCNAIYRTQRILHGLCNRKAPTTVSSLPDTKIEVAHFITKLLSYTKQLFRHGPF

human IL-13 [4] = molecular target: T1, human IL-13; experiment: SPR array (Carterra LSA), antibody captured on anti-human pAb HC30M chip, human IL-13 0.05-100 nM as analyte, 25 C, 1:1 fit
human IL-13 [5] = molecular target: T1, human IL-13; experiment: cell-based or functional assay
cynomolgus IL-13 = cynomolgus IL-13 (cynomolgus, UniProt Q0PW92 21-132); experiment: KinExA, solution equilibrium, free antigen captured on Ref1-coated beads, 25 C
human IL-13 [6] = molecular target: T1, human IL-13; experiment: as above
human IL-13 [7] = molecular target: T1, human IL-13; experiment: cell-based or functional assay; remark: listed apart in the source
human IL-13 [8] = molecular target: T1, human IL-13; experiment: SPR (Biacore 8K+), antibody captured on anti-human pAb CM4 chip, human IL-13 0.6-10 nM as analyte, 37 C, 1:1 fit

T1 sequence (P35225 other isoform, or with tags, fused parts or gaps limits assumed): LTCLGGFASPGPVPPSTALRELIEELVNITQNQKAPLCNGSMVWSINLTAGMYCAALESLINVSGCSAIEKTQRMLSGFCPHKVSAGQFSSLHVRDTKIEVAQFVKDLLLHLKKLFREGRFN
Chain of cynomolgus IL-13 (Q0PW92 entry or part of it): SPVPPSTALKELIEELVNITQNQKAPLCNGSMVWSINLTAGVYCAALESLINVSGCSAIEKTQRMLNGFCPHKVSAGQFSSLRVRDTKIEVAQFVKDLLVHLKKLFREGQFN

B1: AbG (antibody, human IgG1, kappa)
heavy: QVTLRESGPALVKPTQTLTLTCTVSGASLSAYSVNWIRQPPGKALEWLAMIWGDGKIVYNSALKSRLTISKDTSKNQVVLTMTNMDPVDTATYYCAGDGYFPYAMDNWGQGSLVTVSSASTKGPSVFPLAPSSKSTSGGTAALGCLVKDYFPEPVTVSWNSGALTSGVHTFPAVLQSSGLYSLSSVVTVPSSSLGTQTYICNVNHKPSNTKVDKRVEPKSCDKTHTCPPCPAPELLGGPSVFLFPPKPKDTLYITREPEVTCVVVDVSHEDPEVKFNWYVDGVEVHNAKTKPREEQYNSTYRVVSVLTVLHQDWLNGKEYKCKVSNKALPAPIEKTISKAKGQPREPQVYTLPPSREEMTKNQVSLTCLVKGFYPSDIAVEWESNGQPENNYKTTPPVLDSDGSFFLYSKLTVDKSRWQQGNVFSCSVMHEALHNHYTQKSLSLSPGK
light: DIVMTQSPDSLSVSLGERATINCRASKSVDSYGNSYMHWYQQKPGQPPKLLIYLASNLESGVPDRFSGSGSGTDFTLTISSLQAEDVAVYYCQQNNEDPRTFGGGTKVEIKRTVAAPSVFIFPPSDEQLKSGTASVVCLLNNFYPREAKVQWKVDNALQSGNSQESVTEQDSKDSTYSLSSTLTLSKADYEKHKVYACEVTHQGLSSPVTKSFNRGEC
notes: also called Antibody AbG
- fold higher affinity than Ref2 (human IL-13 [1]): 40 fold
- Kd (human IL-13 [2]): < 15 pM
- Kd (human IL-13 [3]): 12.6 pM
- koff (human IL-13 [3]): 7.68e-06 s⁻¹
- kon (human IL-13 [3]): 639000 M⁻¹ s⁻¹
- binding result (mouse IL-13): no binding
- Kd (human IL-13 [4]): < 100 pM
- IC50, HEK-Blue IL-13Ra1/IL-4Ra STAT6-SEAP reporter assay (human IL-13 [5]): 0.174 µg/mL
- Kd (cynomolgus IL-13): 0.72 pM
- koff (cynomolgus IL-13): 1.77e-06 s⁻¹
- kon (cynomolgus IL-13): 2.46e+06 M⁻¹ s⁻¹
- Kd (human IL-13 [6]): 0.23 pM
- koff (human IL-13 [6]): 4.8e-07 s⁻¹
- kon (human IL-13 [6]): 2.06e+06 M⁻¹ s⁻¹

B3: Ref3 (antibody, human IgG1, kappa)
heavy: B1 heavy with A27F, F101Y, L235F, L236E, P332S
light: B1 light with Y36F
- Kd (human IL-13 [3]): 50.7 pM
- koff (human IL-13 [3]): 2.52e-05 s⁻¹
- kon (human IL-13 [3]): 501000 M⁻¹ s⁻¹
- binding result (mouse IL-13): no binding
- Mean IC50 (nM) Donor 1, Phospho-STAT6 assay in human CD14+ monocytes (human IL-13 [7]): 32.2 nM
- Mean IC50 (nM) Donor 2, Phospho-STAT6 assay in human CD14+ monocytes (human IL-13 [7]): 31.3 nM
- Mean IC50 (nM) Donor 3, Phospho-STAT6 assay in human CD14+ monocytes (human IL-13 [7]): 33.9 nM

B11: Ref1 (antibody, human IgG1, kappa)
heavy: B1 heavy with A27F, F101Y
light: B1 light with Y36F
notes: hIgG1-YTE
- Kd (human IL-13 [3]): 55.1 pM
- koff (human IL-13 [3]): 2.66e-05 s⁻¹
- kon (human IL-13 [3]): 483000 M⁻¹ s⁻¹
- Kd (human IL-13 [4]): < 100 pM
- Kd (human IL-13 [8]): 48.4 pM
- koff (human IL-13 [8]): 2.64e-05 s⁻¹
- kon (human IL-13 [8]): 594000 M⁻¹ s⁻¹
- IC50, HEK-Blue IL-13Ra1/IL-4Ra STAT6-SEAP reporter assay (human IL-13 [5]): 0.143 µg/mL
- Kd (cynomolgus IL-13): 0.52 pM
- koff (cynomolgus IL-13): 1.09e-06 s⁻¹
- kon (cynomolgus IL-13): 2.09e+06 M⁻¹ s⁻¹
- Kd (human IL-13 [6]): 6.13 pM
- koff (human IL-13 [6]): 9.37e-06 s⁻¹
- kon (human IL-13 [6]): 1.53e+06 M⁻¹ s⁻¹

B12: AbN (antibody, human IgG1, kappa, V domains shown)
VH: QVTLRESGPALVKPTQTLTLTCTVSGASLSAYSVNWIRQPPGKALEWLAMIWGDGKIVYNSALKSRLTISKDTSKNQVVLTMTNMDPVDTATYYCAGDGYYPYAMDNWGQGSLVTVSS
VL: DIVMTQSPDSLSVSLGERATINCRASESVDYYGHSYMHWYQQKPGQPPKLLIYLASNLESGVPDRFSGSGSGTDFTLTISSLQAEDVAVYYCQQNNEDPRTFGGGTKVEIKR
- Kd (human IL-13 [2]): < 15 pM
- IC50, HEK-Blue IL-13Ra1/IL-4Ra STAT6-SEAP reporter assay (human IL-13 [5]): 0.14 µg/mL

B13: AbF (antibody, human IgG1, kappa, V domains shown)
VH: B12 VH with A31R, G55A, Y101F
VL: B12 VL with Y31S, H34N
- Kd (human IL-13 [2]): < 15 pM
- IC50, HEK-Blue IL-13Ra1/IL-4Ra STAT6-SEAP reporter assay (human IL-13 [5]): 0.126 µg/mL

B14: AbP (antibody, human IgG1, kappa, V domains shown)
VH: B12 VH with I57V, Y101F, N107H
VL: B12 VL with E27K, Y31S, H34N, L54W
- Kd (human IL-13 [2]): < 15 pM
- IC50, HEK-Blue IL-13Ra1/IL-4Ra STAT6-SEAP reporter assay (human IL-13 [5]): 0.152 µg/mL

Next, values leading:

- Kd (human IL-13 [2]): < 15 pM
- IC50, HEK-Blue IL-13Ra1/IL-4Ra STAT6-SEAP reporter assay (human IL-13 [5]): 0.118 µg/mL
B2: AbE (antibody, human IgG1, kappa, V domains shown)
VH: B12 VH with Y101F
VL: B12 VL with E27K, Y31S, L54W

- Kd (human IL-13 [2]): < 15 pM
- IC50, HEK-Blue IL-13Ra1/IL-4Ra STAT6-SEAP reporter assay (human IL-13 [5]): 0.32 µg/mL
B4: AbL (antibody, human IgG1, kappa, V domains shown)
VH: B12 VH with A27F, A31R
VL: B12 VL with E27K, Y31S, H34R

- Kd (human IL-13 [2]): < 15 pM
- IC50, HEK-Blue IL-13Ra1/IL-4Ra STAT6-SEAP reporter assay (human IL-13 [5]): 0.172 µg/mL
B5: AbK (antibody, human IgG1, kappa, V domains shown)
VH: B12 VH with A27S, A31R
VL: B12 VL with E27Q, Y31S, H34N

- Kd (human IL-13 [2]): < 15 pM
- IC50, HEK-Blue IL-13Ra1/IL-4Ra STAT6-SEAP reporter assay (human IL-13 [5]): 0.165 µg/mL
B6: AbO (antibody, human IgG1, kappa, V domains shown)
VH: B12 VH with A27Y, Y101F, N107V
VL: B12 VL with E27K

- Kd (human IL-13 [2]): < 15 pM
- IC50, HEK-Blue IL-13Ra1/IL-4Ra STAT6-SEAP reporter assay (human IL-13 [5]): 0.223 µg/mL
B7: AbI (antibody, human IgG1, kappa, V domains shown)
VH: B12 VH with A31R, Y100F
VL: B12 VL with E27K, Y31S, H34N

- Kd (human IL-13 [2]): < 15 pM
- IC50, HEK-Blue IL-13Ra1/IL-4Ra STAT6-SEAP reporter assay (human IL-13 [5]): 0.107 µg/mL
B8: AbH (antibody, human IgG1, kappa, V domains shown)
VH: B12 VH with A31R
VL: B12 VL with E27K, Y31S, H34N, L54R

- Kd (human IL-13 [2]): < 15 pM
- IC50, HEK-Blue IL-13Ra1/IL-4Ra STAT6-SEAP reporter assay (human IL-13 [5]): 0.167 µg/mL
B9: AbJ (antibody, human IgG1, kappa, V domains shown)
VH: B12 VH with G55R, I57K, Y101F, N107L
VL: B12 VL with E27K, Y31S, L54W

- Kd (human IL-13 [2]): < 15 pM
- IC50, HEK-Blue IL-13Ra1/IL-4Ra STAT6-SEAP reporter assay (human IL-13 [5]): 0.136 µg/mL
B10: AbM (antibody, human IgG1, kappa, V domains shown)
VH: B12 VH with Y101F
VL: B12 VL with E27K, H34R
